{"source": "patent US20230340027A1", "about": "(TECHNION RESEARCH AND DEVELOPMENT FOUNDATION, published 2023)", "binders": {"B1": {"name": "(Ub4_ix_S7C)2CH2-FITC (peptide)", "peptide": "{CH2CO}-WLYLDDCGDWWICG-{code X-C(fluorescein-5-maleimide)-NH2}", "modifications": "thioether N-13 (inferred); reading uncertain; also: dimer: Cys7 joined to Cys7 of second copy by -S-CH2-S-, residue 15 not given here", "notes": "Dimer of peptide 29, so each chain carries the label; also called FITC labeled stapled dimer 30; 30"}}, "key": {"biotin-tetra-UbK48 [1]": {"molecular_target": "T1, biotin-tetra-UbK48 (UniProt P0CG48 1-76, Ub monomers linked to one another via Lys48 (K48); biotin tag (site not stated))", "T1 construct": "Immobilised on streptavidin-coated 96-well plates (1 ug per well); one ubiquitin repeat is meant; also called biotin tagged tetra-UbK48", "experiment": "the filing's modified fluorescence assay, FITC-labelled peptide on tetra-UbK48 (FIGS. 1G and 26)"}, "biotin-tetra-UbK48 [2]": {"molecular_target": "T1, biotin-tetra-UbK48", "experiment": "direct fluorescence plate binding: biotin-tetra-UbK48 on a streptavidin plate, labeled peptide titrated, bound peptide released with 6 M Gn.HCl and read (ex 480 nm, em 525 nm); one-site fit"}}, "note": "Positions of bridges follow the written chain, without caps; N, C: chain ends. code X = not defined here"}
{"binder": "B1", "values": [{"measurement": "Kd", "setting": "biotin-tetra-UbK48 [1]", "value": 12.3, "unit": "nM"}, {"measurement": "EC50 (read off the curve)", "setting": "biotin-tetra-UbK48 [2]", "value": "~10", "unit": "nM"}]}
